Measured values from paper PMC10397247.
Where two headings read alike, the source gives them in different places.

Tests used:
4H918-bN = biological target: T1, 4H918-bN; assay: two-hybrid library CCNG1;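 also: natural log of median RNA to DNA barcode read ratio; higher means stronger binding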
T1 chain: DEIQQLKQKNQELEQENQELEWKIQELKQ

4H883-bN = biological target: T2, 4H883-bN; assay: two-hybrid library CCNG1;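 also: natural log of median RNA to DNA barcode read ratio; higher means stronger binding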
T2 chain: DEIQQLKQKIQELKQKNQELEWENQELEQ

4H717-bN = biological target: T3, 4H717-bN; assay: two-hybrid library CCNG1;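 also: natural log of median RNA to DNA barcode read ratio; higher means stronger binding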
T3 chain: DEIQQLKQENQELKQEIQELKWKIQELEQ

4H72-bN = biological target: T4, 4H72-bN; assay: two-hybrid library CCNG1;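 also: natural log of median RNA to DNA barcode read ratio; higher means stronger binding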
T4 chain: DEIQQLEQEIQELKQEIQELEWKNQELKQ

4H953-bN = biological target: T5, 4H953-bN; assay: two-hybrid library CCNG1;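 also: natural log of median RNA to DNA barcode read ratio; higher means stronger binding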
T5 chain: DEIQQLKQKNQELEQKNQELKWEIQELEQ

4H967-bN = biological target: T6, 4H967-bN; assay: two-hybrid library CCNG1;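 also: natural log of median RNA to DNA barcode read ratio; higher means stronger binding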
T6 chain: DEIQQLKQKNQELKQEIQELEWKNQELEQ

4H607-bN = biological target: T7, 4H607-bN; assay: two-hybrid library CCNG1
T7 chain: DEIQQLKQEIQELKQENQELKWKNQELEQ

4H754-bN = biological target: T8, 4H754-bN; assay: two-hybrid library CCNG1
T8 chain: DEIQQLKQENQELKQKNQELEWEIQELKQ

4H908-bN = biological target: T9, 4H908-bN; assay: two-hybrid library CCNG1
T9 chain: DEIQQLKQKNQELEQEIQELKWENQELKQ

4H797-bN = biological target: T10, 4H797-bN; assay: two-hybrid library CCNG1
T10 chain: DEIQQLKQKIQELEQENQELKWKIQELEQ

4H687-bN = biological target: T11, 4H687-bN; assay: two-hybrid library CCNG1
T11 chain: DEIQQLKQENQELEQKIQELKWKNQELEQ

4H568-bN = biological target: T12, 4H568-bN; assay: two-hybrid library CCNG1
T12 chain: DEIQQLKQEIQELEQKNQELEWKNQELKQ

4H3606-AA = biological target: T13, 4H3606-AA; assay: two-hybrid library CCmax; details: mean of both orientations
T13 chain: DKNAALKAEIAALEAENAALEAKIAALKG

4H697-AA = biological target: T14, 4H697-AA; assay: two-hybrid library CCmax; details: mean of both orientations
T14 chain: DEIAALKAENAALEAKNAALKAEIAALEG

4H340-AA = biological target: T15, 4H340-AA; assay: two-hybrid library CCmax; details: mean of both orientations
T15 chain: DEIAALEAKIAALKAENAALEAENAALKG

4H3865-AA = biological target: T16, 4H3865-AA; assay: two-hybrid library CCmax; details: mean of both orientations
T16 chain: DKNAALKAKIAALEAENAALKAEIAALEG

4H3718-AA = biological target: T17, 4H3718-AA; assay: two-hybrid library CCmax; details: mean of both orientations
T17 chain: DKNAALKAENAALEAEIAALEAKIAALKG

4H3378-AA = biological target: T18, 4H3378-AA; assay: two-hybrid library CCmax
T18 chain: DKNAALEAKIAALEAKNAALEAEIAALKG

4H384-AA = biological target: T19, 4H384-AA; assay: two-hybrid library CCmax; details: mean of both orientations
T19 chain: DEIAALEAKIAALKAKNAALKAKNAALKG

4H3631-AA = biological target: T20, 4H3631-AA; assay: two-hybrid library CCmax; details: mean of both orientations
T20 chain: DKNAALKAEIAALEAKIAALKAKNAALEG

4H3413-AA = biological target: T21, 4H3413-AA; assay: two-hybrid library CCmax; details: mean of both orientations
T21 chain: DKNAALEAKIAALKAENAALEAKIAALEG

4H982-AA = biological target: T22, 4H982-AA; assay: two-hybrid library CCmax; details: mean of both orientations
T22 chain: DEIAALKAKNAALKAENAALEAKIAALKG

4H3588-AA = biological target: T23, 4H3588-AA; assay: two-hybrid library CCmax; details: mean of both orientations
T23 chain: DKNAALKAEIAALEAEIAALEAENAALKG

4H3697-AA = biological target: T24, 4H3697-AA; assay: two-hybrid library CCmax; details: mean of both orientations
T24 chain: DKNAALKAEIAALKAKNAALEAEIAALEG

4H464-AA = biological target: T25, 4H464-AA; assay: two-hybrid library CCmax; details: mean of both orientations
T25 chain: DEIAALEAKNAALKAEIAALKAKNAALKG

4H380-AA = biological target: T26, 4H380-AA; assay: two-hybrid library CCmax; details: mean of both orientations
T26 chain: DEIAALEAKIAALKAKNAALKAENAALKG

4H483-AA = biological target: T27, 4H483-AA; assay: two-hybrid library CCmax; details: mean of both orientations
T27 chain: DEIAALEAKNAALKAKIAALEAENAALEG

4H3629-AA = biological target: T28, 4H3629-AA; assay: two-hybrid library CCmax; details: mean of both orientations
T28 chain: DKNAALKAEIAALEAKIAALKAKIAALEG

4H446-AA = biological target: T29, 4H446-AA; assay: two-hybrid library CCmax; details: mean of both orientations
T29 chain: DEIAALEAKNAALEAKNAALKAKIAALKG

4H63-AA = biological target: T30, 4H63-AA; assay: two-hybrid library CCmax; details: mean of both orientations
T30 chain: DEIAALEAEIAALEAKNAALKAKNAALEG

4H3782-AA = biological target: T31, 4H3782-AA; assay: two-hybrid library CCmax; details: mean of both orientations
T31 chain: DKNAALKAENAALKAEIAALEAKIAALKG

4H3969-AA = biological target: T32, 4H3969-AA; assay: two-hybrid library CCmax; details: mean of both orientations
T32 chain: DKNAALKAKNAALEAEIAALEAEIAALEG

4H3939-AA = biological target: T33, 4H3939-AA; assay: two-hybrid library CCmax; details: mean of both orientations
T33 chain: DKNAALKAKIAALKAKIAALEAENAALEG

4H3595-AA = biological target: T34, 4H3595-AA; assay: two-hybrid library CCmax
T34 chain: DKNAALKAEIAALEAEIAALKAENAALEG

APC7099-AA = biological target: T35, APC7099-AA; assay: two-hybrid library CCmax
T35 chain: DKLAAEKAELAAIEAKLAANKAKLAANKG

APC9096-AA = biological target: T36, APC9096-AA; assay: two-hybrid library CCmax; details: mean of both orientations
T36 chain: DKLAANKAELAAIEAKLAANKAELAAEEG

APC8191-AA = biological target: T37, APC8191-AA; assay: two-hybrid library CCmax; details: mean of both orientations
T37 chain: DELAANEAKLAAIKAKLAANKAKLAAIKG

APC8910-AA = biological target: T38, APC8910-AA; assay: two-hybrid library CCmax; details: mean of both orientations
T38 chain: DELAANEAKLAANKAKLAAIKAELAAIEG

APC9319-AA = biological target: T39, APC9319-AA; assay: two-hybrid library CCmax; details: mean of both orientations
T39 chain: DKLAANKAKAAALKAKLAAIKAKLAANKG

4H32-AA = biological target: T40, 4H32-AA; assay: two-hybrid library CCmax
T40 chain: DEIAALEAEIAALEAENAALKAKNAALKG

4H662-AA = biological target: T41, 4H662-AA; assay: two-hybrid library CCmax; details: mean of both orientations
T41 chain: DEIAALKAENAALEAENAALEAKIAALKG

4H55-AA = biological target: T42, 4H55-AA; assay: two-hybrid library CCmax
T42 chain: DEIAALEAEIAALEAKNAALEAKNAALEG

4H481-AA = biological target: T43, 4H481-AA; assay: two-hybrid library CCmax
T43 chain: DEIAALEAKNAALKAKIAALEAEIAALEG

## DEIQQLKQEIQELEQKNQELEWKNQELKQ [4H568-bN]
4H918-bN
  interaction score: -0.124
4H883-bN
  interaction score: 1.1
4H717-bN
  interaction score: -0.157
4H72-bN
  interaction score: -0.806
4H953-bN
  interaction score: -1.93
4H967-bN
  interaction score: -0.452
4H607-bN
  interaction score: -0.164
4H754-bN
  interaction score: 0.0731
4H908-bN
  interaction score: 1.08
4H797-bN
  interaction score: 0
4H687-bN
  interaction score: 0.312
4H568-bN
  interaction score: 0.761

## DKNAALEAKIAALEAKNAALEAEIAALKG [4H3378-AA]
4H3606-AA
  interaction score: -0.302
4H697-AA
  interaction score: -2.13
4H340-AA
  interaction score: -1.86
4H3865-AA
  interaction score: -0.877
4H3718-AA
  interaction score: -1.79
4H3378-AA
  interaction score: 1.2
4H384-AA
  interaction score: -1.9
4H3631-AA
  interaction score: -1.65
4H3413-AA
  interaction score: -1.24
4H982-AA
  interaction score: -1.5
4H3588-AA
  interaction score: -1.31
4H3697-AA
  interaction score: -1.32

## DEIQQLKQENQELEQKIQELKWKNQELEQ [4H687-bN]
4H918-bN
  interaction score: -0.686
4H883-bN
  interaction score: 0.227
4H717-bN
  interaction score: 0.114
4H72-bN
  interaction score: -1.56
4H953-bN
  interaction score: -1.1
4H967-bN
  interaction score: 0.425
4H754-bN
  interaction score: 0.422
4H908-bN
  interaction score: -0.555
4H797-bN
  interaction score: 0.169
4H687-bN
  interaction score: -0.549

## DEIQQLKQENQELKQEIQELKWKIQELEQ [4H717-bN]
4H918-bN
  interaction score: -1.09
4H883-bN
  interaction score: -0.0445
4H717-bN
  interaction score: 1.4
4H72-bN
  interaction score: -1.73
4H953-bN
  interaction score: -1.57
4H967-bN
  interaction score: -0.445
4H754-bN
  interaction score: -0.997
4H908-bN
  interaction score: -0.377
4H797-bN
  interaction score: -1.95

## DKNAALKAEIAALEAEIAALKAENAALEG [4H3595-AA]
4H464-AA
  interaction score: 1.2
4H380-AA
  interaction score: 0.0185
4H483-AA
  interaction score: -1.8
4H3629-AA
  interaction score: 0.754
4H446-AA
  interaction score: -1.59
4H63-AA
  interaction score: -0.914
4H3782-AA
  interaction score: -1.1
4H3969-AA
  interaction score: -1.4
4H3939-AA
  interaction score: -0.576
4H3595-AA
  interaction score: -0.866

## DKLAAEKAELAAIEAKLAANKAKLAANKG [APC7099-AA]
APC7099-AA
  interaction score: -1.86
APC9096-AA
  interaction score: -1.55
APC8191-AA
  interaction score: -1.62
APC8910-AA
  interaction score: -2.07
APC9319-AA
  interaction score: -2.06

## DEIAALEAEIAALEAENAALKAKNAALKG [4H32-AA]
4H3606-AA
  interaction score: -0.292
4H697-AA
  interaction score: -1.89
4H340-AA
  interaction score: 1.89
4H3865-AA
  interaction score: 1.4
4H3718-AA
  interaction score: -0.924
4H3378-AA; mean of both orientations
  interaction score: -1.84
4H384-AA
  interaction score: 1.2
4H3631-AA
  interaction score: -0.675
4H3413-AA
  interaction score: 0.814
4H982-AA
  interaction score: -0.329
4H3588-AA
  interaction score: -0.686
4H32-AA
  interaction score: 0.0438
4H3697-AA
  interaction score: -0.509

## DEIAALEAKNAALKAKIAALEAEIAALEG [4H481-AA]
4H662-AA
  interaction score: 1.83
4H55-AA
  interaction score: -1.31
4H481-AA
  interaction score: 0.282
